Experimental findings from article PMC3438722, “DNA Binding in High Salt: Analysing the Salt Dependence of Replication Protein A3 from the Halophile Haloferax volcanii” (Archaea, 2012) are described below.

As usually defined, the stoichiometry N is a count of units in the complex or per binding partner. As a reminder, the Kd is the free concentration of one partner at which half of the binding sites on the other are occupied at equilibrium, for simple one-to-one binding.

Data set [1] deals with the molecule itself. The experiment in a line: SEC; analytical, 10/300 Superdex 200, 50 mM HEPES pH 7.0, 0.2 M KCl; 250 ug protein incubated one hour in the buffer; calibrated with gel filtration standards. (SEC sorts molecules by how far they enter the pores of the column.)
Data set [2] deals with the molecule itself. The experiment in a line: SEC; analytical, 10/300 Superdex 200, 50 mM HEPES pH 7.0, 1.0 M KCl; 250 ug protein incubated one hour in the buffer; calibrated with gel filtration standards.
For data set [3], the target named is T1, HvRPA3 full length (Haloferax volcanii DS2 (wild-type), UniProt D4GZS1 1-311).
T1 sequence: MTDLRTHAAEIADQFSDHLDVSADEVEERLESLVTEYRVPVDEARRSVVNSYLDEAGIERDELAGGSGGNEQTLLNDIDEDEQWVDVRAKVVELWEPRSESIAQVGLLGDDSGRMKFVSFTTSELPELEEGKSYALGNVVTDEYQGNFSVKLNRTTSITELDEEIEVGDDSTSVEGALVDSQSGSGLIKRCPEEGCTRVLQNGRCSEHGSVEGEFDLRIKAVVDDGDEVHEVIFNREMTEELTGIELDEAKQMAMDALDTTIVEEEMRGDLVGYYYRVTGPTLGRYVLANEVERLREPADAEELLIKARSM
The experiment in a line: fluorescence anisotropy; 3 M KCl; Hill 1.2 ± 0.1; FA: 50 mM HEPES pH 7.0, 10% glycerol, 0.03% BSA, 20 nM Cy5-oligo, 0.2, 1 or 3 M KCl, room temperature 10 min; SEC: 50 mM HEPES pH 7.0, 0.2, 1 or 3 M KCl; EMSA:
The settings on record: protein: recombinant; tags: N-terminal 6xHis; label: 5' Cy5; single strand.

The target of data set [4] is T2, HvRPA3 CTD-1 (Haloferax volcanii DS2 (wild-type), UniProt D4GZS1 164-311).
T2 sequence: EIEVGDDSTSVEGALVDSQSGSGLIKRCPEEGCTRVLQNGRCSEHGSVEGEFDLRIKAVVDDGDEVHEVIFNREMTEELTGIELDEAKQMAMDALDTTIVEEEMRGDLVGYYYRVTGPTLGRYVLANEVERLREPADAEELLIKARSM
The experiment in a line: fluorescence anisotropy; any KCl condition; data not shown; FA: 50 mM HEPES pH 7.0, 10% glycerol, 0.03% BSA, 20 nM Cy5-oligo, 0.2, 1 or 3 M KCl, room temperature 10 min; SEC: 50 mM HEPES pH 7.0, 0.2, 1 or 3 M KCl; EMSA:
The settings on record: protein: recombinant; tags: N-terminal 6xHis; chain copies: 4; label: 5' Cy5; single strand. Background: Polarisation of emitted light reports the rotation of a fluorescent probe.

The target of data set [5] is T3, HvRPA3 CTD-2 (Haloferax volcanii DS2 (wild-type), UniProt D4GZS1 164-311).
T3 sequence: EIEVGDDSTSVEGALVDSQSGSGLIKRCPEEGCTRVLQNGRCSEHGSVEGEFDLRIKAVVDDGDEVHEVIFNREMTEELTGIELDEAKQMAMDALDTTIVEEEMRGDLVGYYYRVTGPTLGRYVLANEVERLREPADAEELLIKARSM
Described as above. The settings on record: protein: recombinant; tags: N-terminal 6xHis; label: 5' Cy5; single strand.

The target in data set [6] is T1, HvRPA3 full length. The experiment in a line: fluorescence anisotropy; 1 M KCl; Hill 0.9 ± 0.1; monomer equivalents; FA: 50 mM HEPES pH 7.0, 10% glycerol, 0.03% BSA, 20 nM Cy5-oligo, 0.2, 1 or 3 M KCl, room temperature 10 min; SEC: 50 mM HEPES pH 7.0, 0.2, 1 or 3 M KCl; EMSA:
The settings on record: protein: recombinant; tags: N-terminal 6xHis; label: 5' Cy5; single strand.

The target in data set [7] is T4, HvRPA3-NTD (OB-fold) (Haloferax volcanii DS2 (wild-type), UniProt D4GZS1 1-163).
T4 sequence: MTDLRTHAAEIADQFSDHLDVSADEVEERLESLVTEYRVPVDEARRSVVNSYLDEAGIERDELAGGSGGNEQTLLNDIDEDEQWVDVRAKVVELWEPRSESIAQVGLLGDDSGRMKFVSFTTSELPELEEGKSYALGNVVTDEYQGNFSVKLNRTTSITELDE
The experiment in a line: fluorescence anisotropy; 1 M KCl; two-site fit, high-affinity site; dimer concentration; FA: 50 mM HEPES pH 7.0, 10% glycerol, 0.03% BSA, 20 nM Cy5-oligo, 0.2, 1 or 3 M KCl, room temperature 10 min; SEC: 50 mM HEPES pH 7.0, 0.2, 1 or 3 M KCl; EMSA:
The settings on record: protein: recombinant; tags: N-terminal 6xHis; label: 5' Cy5; single strand.

Data set [8] concerns the molecule itself. The experiment in a line: SEC; last step of the purification, 26/60 Superdex 200, 50 mM Hepes pH 7.0, 1.0 M NaCl.
For data set [9], the target named is T2, HvRPA3 CTD-1. The experiment in a line: analytical SEC; any KCl condition (0.2, 1, 3 M); data not shown; FA: 50 mM HEPES pH 7.0, 10% glycerol, 0.03% BSA, 20 nM Cy5-oligo, 0.2, 1 or 3 M KCl, room temperature 10 min; SEC: 50 mM HEPES pH 7.0, 0.2, 1 or 3 M KCl; EMSA:
The settings on record: protein: recombinant; tags: N-terminal 6xHis; chain copies: 4; single strand. A general note: A gel shift assay detects complexes by their altered migration in electrophoresis.

The target of data set [10] is T3, HvRPA3 CTD-2. The data set is described as above. The settings on record: protein: recombinant; tags: N-terminal 6xHis; single strand.
Data set [11] concerns the molecule itself. The experiment in a line: SEC; analytical, 10/300 Superdex 200, 50 mM HEPES pH 7.0, 1.0 M KCl, with equimolar (monomer equivalent) 18mer ssDNA.

B1: Replication protein A3 from Haloferax volcanii, full length (natural protein, UniProt D4GZS1 1-311, looked up)
chain: MTDLRTHAAEIADQFSDHLDVSADEVEERLESLVTEYRVPVDEARRSVVNSYLDEAGIERDELAGGSGGNEQTLLNDIDEDEQWVDVRAKVVELWEPRSESIAQVGLLGDDSGRMKFVSFTTSELPELEEGKSYALGNVVTDEYQGNFSVKLNRTTSITELDEEIEVGDDSTSVEGALVDSQSGSGLIKRCPEEGCTRVLQNGRCSEHGSVEGEFDLRIKAVVDDGDEVHEVIFNREMTEELTGIELDEAKQMAMDALDTTIVEEEMRGDLVGYYYRVTGPTLGRYVLANEVERLREPADAEELLIKARSM
notes: Replication protein A3 (RPA3) of Haloferax volcanii, amplified from genomic DNA of wild-type DS2; full length, residues 1-311 (the CTD construct ends at 311); Oligomeric state depends on the salt concentration; Tagged protein has a predicted MW of 35.4 x 10^3; also called HvRPA3; RPA3; source: E. coli B834 (DE3), purified (ammonium sulphate fractionation, Talon resin, Superdex 200); not shown: …
Consider B1, for which the “stoichiometry N” value in [1] came out at 4; in data set [2], 2.

On to GCGTGTGTGGTGGTGTGC (ssDNA) [Cy5-18mer ssDNA (FA)], for which the Kd in data set [3] amounted to 24.1 ± 2.9 nM; in [6], 53.9 ± 18.3 nM; in [7] it was 4.1 ± 7.9 nM. Further, the binding result in data set [4] and in data set [5] was “no binding” throughout.

B2: HvRPA3 C-terminal domain (residues 164-311), second size exclusion peak (CTD-2) (domain or fragment, Haloferax volcanii, UniProt D4GZS1 164-311, looked up)
chain: EIEVGDDSTSVEGALVDSQSGSGLIKRCPEEGCTRVLQNGRCSEHGSVEGEFDLRIKAVVDDGDEVHEVIFNREMTEELTGIELDEAKQMAMDALDTTIVEEEMRGDLVGYYYRVTGPTLGRYVLANEVERLREPADAEELLIKARSM
notes: Replication protein A3 (RPA3) of Haloferax volcanii, C-terminal domain residues 164-311, holds the zinc finger motif; Same construct as m3; the peak of lower apparent mass in the last purification step; Holds zinc (0.53 mol/mol); also called HvRPA3-CTD-2; source: E. coli B834 (DE3), purified (ammonium sulphate fractionation, Talon resin, Superdex 200; second of two peaks); not shown: 6xHis, …
B2: the “stoichiometry N” value came out at 2 in [8] and 3 in [1].

B3: HvRPA3 C-terminal domain (residues 164-311), first size exclusion peak (CTD-1) (domain or fragment, Haloferax volcanii, UniProt D4GZS1 164-311, looked up)
chain: EIEVGDDSTSVEGALVDSQSGSGLIKRCPEEGCTRVLQNGRCSEHGSVEGEFDLRIKAVVDDGDEVHEVIFNREMTEELTGIELDEAKQMAMDALDTTIVEEEMRGDLVGYYYRVTGPTLGRYVLANEVERLREPADAEELLIKARSM
notes: Replication protein A3 (RPA3) of Haloferax volcanii, C-terminal domain residues 164-311, holds the zinc finger motif; Same construct as m4; the peak of higher apparent mass in the last purification step, concentrated apart; also called HvRPA3-CTD-1; source: E. coli B834 (DE3), purified (ammonium sulphate fractionation, Talon resin, Superdex 200; first of two peaks); not shown: 6xHis, N-terminal, …
B3: the entries for the “stoichiometry N” value in data set [8], in [1] and in data set [2] were 4, 7 and 5, respectively.

GCGTGTGTGGTGGTGTGC (ssDNA) [18mer ssDNA (SEC)]: the binding result in [9] and in data set [10] was “no binding” in each case.

B4: HvRPA3 N-terminal domain (residues 1-163) (domain or fragment, Haloferax volcanii, UniProt D4GZS1 1-163, looked up)
chain: MTDLRTHAAEIADQFSDHLDVSADEVEERLESLVTEYRVPVDEARRSVVNSYLDEAGIERDELAGGSGGNEQTLLNDIDEDEQWVDVRAKVVELWEPRSESIAQVGLLGDDSGRMKFVSFTTSELPELEEGKSYALGNVVTDEYQGNFSVKLNRTTSITELDE
notes: Replication protein A3 (RPA3) of Haloferax volcanii, N-terminal domain residues 1-163, holds the OB-fold; Tagged construct has a predicted MW of 18.9 x 10^3; also called NTD; HvRPA3-NTD; source: E. coli B834 (DE3), purified (ammonium sulphate fractionation, Talon resin, Superdex 200); not shown: 6xHis, N-terminal, kept
With B4, the “stoichiometry N” value was determined as 2 in data set [11] and 3 in [1].
